Measurements published in patent US20130261013A1 (MODPRO, published 2013).
Square brackets hold non-standard residues; d marks the D form. Side chains are listed from the residue outwards. Ends that are not written are not given here. * marks the point of attachment. X2 = 7‑methoxycoumarin‑3‑carboxylic acid, COc1ccc2cc(C(=O)*)c(=O)oc2c1; Dansyl = CN(C)c1cccc2c(S(=O)(=O)*)cccc12; Ahx = NCCCCCC(=O)O

Key:
[1] = target: T1, human D-dimer protein (human, UniProt P02671 124-216; P02675 164-491; P02679 89-437); test: SPR (Biacore 2000) screen, D-dimer immobilized on a CM5 chip, binder at 1, 10 and 100 nM, 3 min injection, 10 min clearance
T1 construct: Bought from Abcam Inc. UK; the chain make-up here is from general knowledge
T1 sequence (looked up) 1: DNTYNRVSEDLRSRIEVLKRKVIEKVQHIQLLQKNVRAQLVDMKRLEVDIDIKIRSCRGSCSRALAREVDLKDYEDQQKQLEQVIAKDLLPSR
T1 sequence (looked up) 2: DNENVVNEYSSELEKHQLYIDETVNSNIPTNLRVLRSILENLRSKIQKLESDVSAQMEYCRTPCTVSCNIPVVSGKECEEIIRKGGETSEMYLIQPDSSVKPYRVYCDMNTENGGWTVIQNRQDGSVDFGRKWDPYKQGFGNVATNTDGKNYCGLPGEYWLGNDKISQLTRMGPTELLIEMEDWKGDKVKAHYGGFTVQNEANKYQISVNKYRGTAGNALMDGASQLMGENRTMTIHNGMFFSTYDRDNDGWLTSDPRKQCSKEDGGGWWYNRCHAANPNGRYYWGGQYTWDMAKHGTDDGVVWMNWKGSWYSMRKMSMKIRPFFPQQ
T1 sequence (looked up) 3: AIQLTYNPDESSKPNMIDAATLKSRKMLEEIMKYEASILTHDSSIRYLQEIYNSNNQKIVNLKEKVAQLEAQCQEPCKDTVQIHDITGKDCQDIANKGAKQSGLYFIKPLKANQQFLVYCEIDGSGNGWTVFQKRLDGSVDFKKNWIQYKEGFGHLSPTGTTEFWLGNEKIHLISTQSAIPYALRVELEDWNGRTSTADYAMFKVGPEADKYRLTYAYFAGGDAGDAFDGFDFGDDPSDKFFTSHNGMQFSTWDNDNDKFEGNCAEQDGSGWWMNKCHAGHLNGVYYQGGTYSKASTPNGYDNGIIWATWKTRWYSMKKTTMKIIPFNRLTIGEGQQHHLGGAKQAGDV
Protocol: (§1) The protein was then further diluted with 10 mM NaOAc at pH 4.6 to give a concentration of about 32 μg/mL. The D-dimer protein was covalently immobilized on the sensor chip surface by amine coupling with HBS-EP (10 mM HEPES, pH 7.4, 150 mM NaCl, 3 mM EDTA and 0.005% P20) (GE Healthcare Bio-Sciences, Uppsala, Sweden) as a running buffer. The CM5 sensor chip surface was activated for 7 min by injecting a solution of EDC/NHS (200 mM 1-ethyl-3-(3-dimethylaminopropyl)-carbodiimide hydrochloride/50 mM N-hydroxysuccinimide) (GE Healthcare Bio-Sciences, Uppsala, Sweden). The D-dimer protein was injected for 1.5 min at flow rate of 5 uL/min over the activated surface and followed by 7-min pulse of 1M ethanolamine at pH 8.5 to deactivate remaining active ester.
The interactions between the D-dimer protein and binders as well as surface competition experiments were studied using a Biacore 2000 instrument (GE Healthcare Bio-Sciences, Uppsala, Sweden), equilibrated at 25° C. The CM5 sensor chip (Research grade, Biacore) and reagents were from GE Healthcare Bio-Sciences, Uppsala, Sweden. For direct interaction studies between immobilized D-dimer protein and polypeptide conjugates, HBS-EP was used as running buffer. […] For minimum sample dispersion, the samples were injected at a flow rate of 50 uL/min. […]

[2] = target: T2, human Carbonic Anhydrase II (human, UniProt P00918 2-260); test: fluorescence titration, 50 nM fluorescein labelled binder, HCAII 20 pM to 1 µM
Protocol: The fluorescence titrations were carried out using polypeptides conjugated to a dansyl group rather than a 7-methoxycoumarin to avoid overlap with fluorescein, but a fluorophore is present in each sequence of the scaffold library to simplify identification and quantification throughout synthesis and purification. […] Fluorescence intensities of protein-binder mixtures were compared to intensities of binders without protein. The analysis was performed in 50 mM Hepes buffer at pH 7.4 containing 150 mM NaCl. HCAII was added in 25 steps over a concentration range from 20 pM to 1 μM to the binder at 50 nM concentration and the results analyzed by curve fitting.

[3] = target: T2, human Carbonic Anhydrase II; test: SPR, HCAII immobilized on CM5, 1:1 model
Protocol: (§2) HCAI and HCAII were immobilized in different flowcells on a CM-5 (Biacore) chip using standard EDC/NHS coupling in Acetate buffer at pH 5.5.
(§3) SPR measurements were performed on a Biacore® 2000 instrument, with the proteins immobilized on a Biacore® CM-5 sensor chips (GE Healthcare). All interaction studies were performed in Biacore® HSB-EP buffer with the addition of 1% (v/v) DMSO. HCAII (Sigma, lyophilized powder) was dissolved in Acetate buffer pH 5.5 to a 2 mg/mL solution. HCAII were conjugated to the surface by EDC/NHS coupling reactions in Acetate buffer pH 5.5. Solutions of the polypeptide binders were prepared in HBS-EP buffer from stock solutions of 20 μM in DMSO and allowed to flow over the surface at 20 μL/min, with blank injections after every series. All samples were adjusted to contain 1% (v/v) DMSO. Injections were made for 30 s and dissociation was allowed to proceed for 3000 s. Evaluation was performed using a 1:1 binding model.

[4] = target: T3, human Carbonic Anhydrase I (human, UniProt P00915 2-261); test: SPR, HCAI immobilized on CM5, 1:1 model
T3 construct: also called HCAI; HCA I
Protocol: as §2, §3

[5] = target: T2, human Carbonic Anhydrase II; test: SPR (Biacore 2000), HCAII immobilized on CM5, 1:1 model
Protocol: The sixteen polypeptide conjugates were also characterized by SPR biosensor analysis (Biacore®, GE Healthcare), using a Biacore® 2000 instrument, Biacore® CM-5 chip and HBS-EP buffer pH 7.4 (Biacore®, GE Healthcare) with addition of 1% DMSO for the interaction studies. Peptide solutions were prepared by dilution in buffer from 20 μM stock solutions in DMSO. HCAII was immobilized on the chip using standard EDC/NHS coupling in Acetate buffer pH 5.5. The binders were allowed to flow over the chip at 7 concentrations in the range from 1 nM to 500 nM and the interactions were evaluated using a 1:1 binding model (BiaEvaluation).
as §3, with “Evaluation was performed using a 1:1 binding model.” left out

[6] = target: T1, human D-dimer protein; test: SPR screen (Biacore 2000), D-dimer immobilized on CM5, 1:1 Langmuir model
Protocol: as §1
(§4) The interactions between the D-dimer protein and binders as well as surface competition experiments were studied using a Biacore 2000 instrument (GE Healthcare Bio-Sciences, Uppsala, Sweden), equilibrated at 25° C. The CM5 sensor chip (Research grade, Biacore) and reagents were from GE Healthcare Bio-Sciences, Uppsala, Sweden. For direct interaction studies between immobilized D-dimer protein and polypeptide conjugates, HBS-EP was used as running buffer. […] For minimum sample dispersion, the samples were injected at a flow rate of 50 uL/min. After 10 min of dissociation the surface was regenerated by 30 s pulse injection of 10 mM glycine at pH 3.0. All injections were serial and first passed over the deactivated dextran surface and then over the immobilized surfaces. Blank injections were included for each measurement series and subtracted from the data. Experiments were performed at least twice, unless stated otherwise. […] The dissociation constants, Kd, were obtained using the Biaevaluation program version 3.2 (Biacore) and assuming a simple 1:1 Langmuir binding mechanism.

[7] = target: T1, human D-dimer protein; test: SPR (Biacore 2000), D-dimer immobilized on CM5, binders at 5-160 nM, 1:1 Langmuir model
[8] = target: T1, human D-dimer protein; test: SPR surface competition, D-dimer immobilized; competitor 4-D10L17-GPRP at 100 nM; GPRP in running buffer, competing with 100 nM 4-D10L17-GPRP (Biacore)
Protocol: as §4

[9] = target: T3, human Carbonic Anhydrase I; test: SPR, HCAI immobilized on CM5, 1:1 model; the heads Koff and Kon seem to be swapped
Protocol: as §2, §3

[10] = target: T2, human Carbonic Anhydrase II; test: SPR, ratio of the dissociation constants for HCAI and HCAII
From the text: as §2

T3 sequence (P00915 2-261 limits assumed): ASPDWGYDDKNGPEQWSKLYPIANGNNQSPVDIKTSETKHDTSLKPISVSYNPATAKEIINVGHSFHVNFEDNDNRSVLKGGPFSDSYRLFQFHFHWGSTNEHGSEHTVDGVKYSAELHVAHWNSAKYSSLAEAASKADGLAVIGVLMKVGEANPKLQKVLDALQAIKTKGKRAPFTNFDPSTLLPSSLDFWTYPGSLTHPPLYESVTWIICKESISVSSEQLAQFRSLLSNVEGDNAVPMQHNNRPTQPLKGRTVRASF

B1: 1D15L8_GPRP (designed binder)
polypeptide: Ac-NEADLEAKIRHLAEKLEARGPEDAEQLAEQLARAFEAFARAG
ligand peptide, branch on Lys8: GPRP[Ahx]G
modifications: not fully specified (some residues); also: reporter group on Lys15, bond at chain A 8 to a chain's C-terminus via 6-aminocaproic acid-Gly
[1]
  binding result: no binding (tested: 100 nM)

## Ac-NAADLEAK([Ahx-benzenesulphonamide carboxylic acid])IRHLAEK(Dansyl)LAARGPVDC(N‑(5-fluoresceinyl)maleimide)AQLAEQLARRFEAFARAG (designed binder) [3-C15L8-B with dansyl and fluorescein (form for fluorescence titration)]
[2]
  Kd: 29 nM

## Ac-NAADLEAK([Ahx-benzenesulphonamide carboxylic acid])IRHLAEK(X2)LAARGPVDAAQLAEQLARRFEAFARAG (designed binder) [3-C15L8-B]
[3]
  Kd: 60 nM
[4]
  Kd: 390 nM
[5]
  Kd: 43 nM

B2: 2D15L8_GPRP (designed binder)
chain: Ac-NEADLEAK([Gly-Ahx-Pro-Arg-Pro-Gly])IRHLAEKLAARGPVDAAQLAEQLARAFEAFARAG
modifications: also: reporter on Lys15
notes: 'D' in place of 'C' in the name is not explained; tied to 2-C15L8 by the rest of the name
[6]
  Kd: 10400 nM

## Ac-NEADLEAAIRHLAEALAARGPK([Gly-Ahx-Pro-Arg-Pro-Gly])DAKQLAEQLARAFEAFARAG (designed binder, also: reporter on Lys25, 'D' in the name not explained) [2D25L22_GPRP]
[6]
  Kd: 16100 nM

## Ac-NAADLEAAIKHLAEALK([Gly-Ahx-Pro-Arg-Pro-Gly])ARGPVDAAQLAEQLARAFEAFARAG (designed binder, also: reporter on Lys10, 'D' in the name not explained) [2D10L17_GPRP]
[6]
  Kd: 10300 nM

## Ac-NAADLEAAIRHLAERLAARGPVDAAQLAEQLAAK([Gly-Ahx-Pro-Arg-Pro-Gly])FEKFARAG (designed binder, also: reporter on Lys37, 'D' in the name not explained) [2D37L34_GPRP]
[6]
  Kd: 13600 nM

B3: 3D37L34_GPRP (designed binder)
chain: Ac-NAADLEAAIRHLAERLAARGPVDAAQLAEQLARK([Gly-Ahx-Pro-Arg-Pro-Gly])FEKFARAG
modifications: also: reporter on Lys37
notes: 'D' in the name not explained; a Cys in the loop region may be present
[7]
  Kd: 15.4 nM
[6]
  Kd: 1150 nM

## Ac-NEADLEAAIRHLAERLEARGPADAAQLAEQLAAK([Gly-Ahx-Pro-Arg-Pro-Gly])FEKFARAG (designed binder, also: reporter on Lys37, 'D' in the name not explained) [1D37L34_GPRP]
[6]
  Kd: 5070 nM

## Ac-NAADLEAAIK(Dansyl)HLAEALK([Ahx-benzenesulphonamide carboxylic acid])ERGPEDC(N‑(5-fluoresceinyl)maleimide)EQLAEQLARAFEAFARAG (designed binder) [1-C10L17-B with dansyl and fluorescein (form for fluorescence titration)]
[2]
  Kd: 5 nM

## GPRP (also called GPRP tetrapeptide) [GPRP peptide]
[8]
  IC50: ~50000 nM

## Ac-NAADLEARIRHLRERLAARGPRDAAQLAEQLARK([Ahx-benzenesulphonamide carboxylic acid])FEK(X2)FARAG (designed binder, not fully specified (C-terminus)) [4-C37L34-B]
[3]
  Kd: 17 nM
[9]
  kon: 4400 M⁻¹ s⁻¹
[4]
  Kd: 470 nM
[10]
  factor of discrimination between HCAI and HCAII: ~30 fold
[5]
  Kd: 15 nM
